Measured values as given in paper PMC2782368 (Journal of molecular biology, 2009).
Where a chain is given by its changes, count along the chain named.

T1: murine core RAG1 fused to maltose-binding protein, wild type (murine), P15919
T1 chain: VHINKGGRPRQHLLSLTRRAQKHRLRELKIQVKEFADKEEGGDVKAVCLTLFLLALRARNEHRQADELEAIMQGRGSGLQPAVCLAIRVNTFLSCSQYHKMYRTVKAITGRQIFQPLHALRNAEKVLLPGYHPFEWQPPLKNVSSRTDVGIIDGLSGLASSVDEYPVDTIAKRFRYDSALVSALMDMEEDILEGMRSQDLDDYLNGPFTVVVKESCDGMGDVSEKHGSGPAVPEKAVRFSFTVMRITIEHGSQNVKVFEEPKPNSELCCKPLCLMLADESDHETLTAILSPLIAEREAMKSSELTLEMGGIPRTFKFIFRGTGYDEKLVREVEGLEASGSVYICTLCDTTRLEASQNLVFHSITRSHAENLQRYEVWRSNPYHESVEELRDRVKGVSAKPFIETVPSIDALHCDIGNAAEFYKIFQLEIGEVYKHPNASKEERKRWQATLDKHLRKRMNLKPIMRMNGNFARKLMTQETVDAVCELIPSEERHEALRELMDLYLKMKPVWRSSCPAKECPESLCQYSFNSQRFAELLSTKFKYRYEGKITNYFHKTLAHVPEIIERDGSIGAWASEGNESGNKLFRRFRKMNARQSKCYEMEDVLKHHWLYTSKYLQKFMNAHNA

T2: mR1(core) E962A mutant (murine, UniProt P15919 384-1008, E962A)
T2 sequence (looked up): T1 chain with E579A

T3: murine core RAG1 fused to maltose-binding protein, wild type (murine, UniProt P15919 384-1008)
T3 sequence (looked up): T1 chain

T4: mR1(core) H942A mutant (murine, UniProt P15919 384-1008, H942A)
T4 sequence (looked up): T1 chain with H559A

T5: mR1(core) H937A mutant (murine, UniProt P15919 384-1008, H937A)
T5 sequence (looked up): T1 chain with H554A

B1: murine core RAG1 fused to maltose-binding protein, wild type, P15919 384-1008 (domain or fragment)
chain: T1 chain
B2: core RAG2 fused to glutathione S-transferase (domain or fragment, murine, UniProt P21784 1-387, looked up)
chain: MSLQMVTVGHNIALIQPGFSLMNFDGQVFFFGQKGWPKRSCPTGVFHFDIKQNHLKLKPAIFSKDSCYLPPLRYPATCSYKGSIDSDKHQYIIHGGKTPNNELSDKIYIMSVACKNNKKVTFRCTEKDLVGDVPEPRYGHSIDVVYSRGKSMGVLFGGRSYMPSTQRTTEKWNSVADCLPHVFLIDFEFGCATSYILPELQDGLSFHVSIARNDTVYILGGHSLASNIRPANLYRIRVDLPLGTPAVNCTVLPGGISVSSAILTQTNNDEFVIVGGYQLENQKRMVCSLVSLGDNTIEISEMETPDWTSDIKHSKIWFGSNMGNGTIFLGIPGDNKQAMSEAFYFYTLRCSEEDLSEDQKIVSNSQTSTEDPGDSTPFEDSEEFCFS

Tests used:
[1] = molecular target: T1, murine core RAG1 fused to …; assay: SEC; settings: remark: other sources report otherwise
mR1(core) E962A mutant = molecular target: T2, mR1(core) E962A mutant; assay: pull-down
[2] = molecular target: T3, murine core RAG1 fused to …; assay: pull-down
mR1(core) H942A mutant = molecular target: T4, mR1(core) H942A mutant; assay: pull-down
mR1(core) H937A mutant = molecular target: T5, mR1(core) H937A mutant; assay: pull-down

Row | Binder | stoichiometry N [1] | binding result (mR1(core) E962A mutant) | binding result [2] | binding result (mR1(core) H942A mutant) | binding result (mR1(core) H937A mutant)
1 | B1 | 2 | – | – | – | –
2 | B2 | – | binds | binds | binds | binds
